The text below walks through data of patent publication US20220259593A1, “CONTROL OF MAMMALIAN GENE DOSAGE USING CRISPR” (The Regents of the University of California, priority 2019, published 2022).

The chains are these.
B1: cr536 (nucleic acid)
guide: GTTTAAGAGCTAAGCTGGAAACAGCATAGCAACTTTAAATAAGGATATTCCGTTATCAACTTGAAAAAGTGGCACCGAGTCGGTGCT
modifications: listed as DNA, chemistry not fully specified
B2: cr049 (nucleic acid)
guide: GTGTTAGAGCTAAGCTGGAAACAGCATAGCAAGTTTAAATAAGGCTAGTCCGTTATCAACTTGAAAAAGTGGCACCGAGTCGGTGCT
modifications: listed as DNA, chemistry not fully specified
B3: cr070 (nucleic acid)
guide: GTTTAACGGCTAAGCTGGAAACAGCATAGCAAGTTTAAATAAGGCTAGTCCGTTATCAACTTGAAAAAGTGGCACCGAGTCGGTGCT
modifications: listed as DNA, chemistry not fully specified
B4: cr981 (nucleic acid)
guide: GTTTAAGAGCTAAGCTGGAAACAGCATAGCAAGTTTAAATAACGCTAGTCGGTTATCAACTGGAAACAGTGGCACCGAGTCGGTGCT
modifications: listed as DNA, chemistry not fully specified
B5: cr482 (nucleic acid)
guide: GTTTAAGAGCTAAGCTGGAAACAGCATAGCAAGTTTAAATAAGGCTTGTCCCTTATCAACTTGAAAAAGTGGCACCGAGTCGGTGCT
modifications: listed as DNA, chemistry not fully specified
B6: cr271 (nucleic acid)
guide: GTTTAAGAGCTAAGCTGGAAACAGCATAGCAAGTTTAAATAAGGCTAGTCCGTTATCAACTTGAAAAAGTGGTCCCGAGTCGGGACT
modifications: listed as DNA, chemistry not fully specified
B7: cr068 (nucleic acid)
guide: GTTAGAGAGCTAAGCTGGAAACAGCATAGCAAGTTTAAATAAGGCTAGTCCGTTATCAACTTGAAAAAGTGGCACCGAGTCGGTGCT
modifications: listed as DNA, chemistry not fully specified
B8: cr381 (nucleic acid)
guide: GTTTAAGAGCTAAGCTGGAAACAGCATAGCAAGTTTAAATTAGGCTCGTCCGTTATCAACTTGACAAAGTGGCACCGAGTCGGTGCT
modifications: listed as DNA, chemistry not fully specified
B9: cr674 (nucleic acid)
guide: GTTTAAGAGCTAAGCTGGAAACAGCATAGCAAGTTTAAATAACGCTAGTCGGTTATCATCTTGAAAAAGAGGCACCGAGTCGGTGCT
modifications: listed as DNA, chemistry not fully specified
B10: cr469 (nucleic acid)
guide: GTTTAAGAGCTAAGCTGGAAACAGCATAGCAAGTTTAAATAAGGCTAGTCCCTTATCAACTTGAAAAAGTGGCACCGAGTCGGTGCT
modifications: listed as DNA, chemistry not fully specified
B11: cr303 (nucleic acid)
guide: GTTTAAGAGCTAAGCTGGAAACAGCATAGCAACTTTAAATAAGGCTTGTCCGTTATCAACTTGAAAAAGTTGCACCGAGTCGGTGCT
modifications: listed as DNA, chemistry not fully specified
B12: cr245 (nucleic acid)
guide: GTTTAAGAGCTAAGCTGGAAACAGCATAGCAAGGTTAAATAAGACTAGTTCGTTATCAACTTGAAAAAGTGGCACCGAGTCGGTGCT
modifications: listed as DNA, chemistry not fully specified

The test system of this series is K562 CRISPRi cells. In words: Constant region variant library pooled growth screen, K562. In kind it is cell-based, human. The conditions noted are these: sgRNA constant region variants; activity relative to the original, un-modified constant region cr995. The method in brief: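 Pooled library transduced into K562 CRISPRi cells in duplicate, puromycin-selected, grown at >2000× coverage and sampled after 4 to 8 days. Phenotypes per targeting sequence:constant region pair were normalized to the unmodified-scaffold pairing to give relative activity.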
The molecule B1 had a Mean relative activity of 0.003951.

In turn, B2 returned a Mean relative activity of 0.003203.

As for B3, the Mean relative activity was determined as 1.03.

With B4, the Mean relative activity is on record as 0.003266.

The molecule B5 showed a Mean relative activity of 0.003006.

In turn, B6 came in with a Mean relative activity of 1.03.

B7 displayed a Mean relative activity of 0.002959.

In the case of B8, the Mean relative activity is 0.003196.

The molecule B9 gave a Mean relative activity of 0.00279.

On to B10, for which the Mean relative activity amounted to 0.003211.

The molecule B11 yielded a Mean relative activity of 0.003573.

B12: the Mean relative activity is 0.00372.
